Reference: patent publication US20090317849

Assays:
[1] = molecular target: BSA (Bovine Serum Albumin) (UniProt P02769)
[2] = tested on: T1, PKC (Protein Kinase C) matrix AAKIQASFRGHMARKK
T1 sequence: AAKIQASFRGHMARKK

[3] = tested on: recombinant Mep45-kinase matrix fusion protein (PKC matrix)
[4] = tested on: T2, cdc2-PK (cdc2 Protein Kinase) matrix PKTPKKAKKL
T2 sequence: PKTPKKAKKL

[5] = tested on: recombinant Mep45-kinase matrix fusion protein (cdc2-PK matrix)

BSA (Bovine Serum Albumin), sequence (P02769 25-607): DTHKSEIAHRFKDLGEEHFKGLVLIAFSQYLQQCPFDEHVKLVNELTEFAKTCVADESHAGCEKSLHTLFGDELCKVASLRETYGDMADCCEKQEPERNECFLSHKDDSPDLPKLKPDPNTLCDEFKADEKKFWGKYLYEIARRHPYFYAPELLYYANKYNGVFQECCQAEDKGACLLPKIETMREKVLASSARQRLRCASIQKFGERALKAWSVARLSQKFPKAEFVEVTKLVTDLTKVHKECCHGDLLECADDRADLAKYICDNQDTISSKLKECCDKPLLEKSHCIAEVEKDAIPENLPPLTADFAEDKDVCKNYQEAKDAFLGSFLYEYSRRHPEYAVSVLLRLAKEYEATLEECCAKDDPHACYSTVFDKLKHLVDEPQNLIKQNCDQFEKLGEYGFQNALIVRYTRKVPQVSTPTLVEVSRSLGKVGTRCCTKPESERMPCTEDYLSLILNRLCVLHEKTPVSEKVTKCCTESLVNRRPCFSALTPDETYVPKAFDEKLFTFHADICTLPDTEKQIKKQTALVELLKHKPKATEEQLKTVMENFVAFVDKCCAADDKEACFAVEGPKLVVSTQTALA

Substance	phosphorylation on chip with [gamma-32P]ATP, X-ray film or X-ray fluorescence spectrometer [1]	phosphorylation on chip with [gamma-32P]ATP, X-ray film or X-ray fluorescence spectrometer [2]	phosphorylation on chip with [gamma-32P]ATP, X-ray film or X-ray fluorescence spectrometer [3]	phosphorylation on chip with [gamma-32P]ATP, X-ray film or X-ray fluorescence spectrometer [4]	phosphorylation on chip with [gamma-32P]ATP, X-ray film or X-ray fluorescence spectrometer [5]
PKC (Protein Kinase C)	no signal was detected on the spot of BSA (negative control)	clear signal was detected on the spot of AAKIQASFRGHMARKK matrix (FIG. 5A)	clear signal was detected on the spot of ... Mep45 fusion matrix (FIG. 5B)		
cdc2 protein kinase	no signal was detected on the spot of BSA (negative control)			clear signal was detected on the spot of PKTPKKAKKL matrix (FIG. 4A)	clear signal was detected on the spot of ... Mep45 fusion matrix (FIG. 4B)
